Assay results as given in EP2386565A2, “Compounds and methods to inhibit or augment an inflammatory response” (Cambridge Enterprise Ltd., priority 1999, dated 2000).
“And” between values parts separate entries of the source, which are not always exact repeats. Equal entries are not always repeated.

Experiments:
[1] = molecular target: chemokine receptors on THP-1 cells; assay: binding to chemokine receptors on THP-1 cells; given as association constant
CCR5 (human) = CCR5 (human) (UniProt P51681); assay: 12-point Scatchard analysis, 0.03 nM 125I-RANTES on HOS CCR5 cells and parental line, 4°C, 2 hours
[2] = molecular target: T1, Duffy Antigen Receptor for Chemokines (DARC) (human) (UniProt Q16570); assay: footnote c of Table 6; given as affinity constant
T1 sequence (looked up): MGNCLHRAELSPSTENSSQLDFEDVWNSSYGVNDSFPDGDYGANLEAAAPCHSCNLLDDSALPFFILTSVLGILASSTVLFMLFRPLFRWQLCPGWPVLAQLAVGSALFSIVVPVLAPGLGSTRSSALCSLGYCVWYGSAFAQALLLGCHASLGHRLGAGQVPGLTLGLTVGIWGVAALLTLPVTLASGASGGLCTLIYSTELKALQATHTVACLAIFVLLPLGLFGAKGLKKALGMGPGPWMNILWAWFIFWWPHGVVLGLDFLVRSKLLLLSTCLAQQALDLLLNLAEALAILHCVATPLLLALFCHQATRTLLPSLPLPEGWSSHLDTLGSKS

[3] = molecular target: chemokine receptors on THP-1 cells; assay: 100 µM biotinylated peptide on THP-1 cells (4 x 10^5 per reaction), 4°C, streptavidin-peroxidase/TMB
[4] = molecular target: chemokine receptors on THP-1 cells; assay: 100 µM biotinylated peptide on THP-1 cells with 100-fold excess of the same unlabeled peptide
[5] = molecular target: chemokine receptors on the surface of Jurkat cells; assay: 100 µM biotinylated peptide on Jurkat cells (10^6 per reaction), 4°C, streptavidin-peroxidase/TMB
[6] = molecular target: chemokine receptors on THP-1 cells; assay: 100 µM biotinylated peptide on THP-1 cells, alone minus excess unlabeled peptide
[7] = molecular target: chemokine receptors on the surface of Jurkat cells; assay: 100 µM biotinylated peptide on Jurkat cells, alone minus excess unlabeled peptide
[8] = molecular target: chemokine receptors on the surface of Jurkat cells; assay: 100 µM biotinylated peptide on Jurkat cells with 100-fold excess of the same unlabeled peptide
[9] = molecular target: chemokine receptors on the surface of Jurkat cells; assay: biotinylated peptide on cells, streptavidin-peroxidase

Chain of CCR5 (human) (P51681 whole entry): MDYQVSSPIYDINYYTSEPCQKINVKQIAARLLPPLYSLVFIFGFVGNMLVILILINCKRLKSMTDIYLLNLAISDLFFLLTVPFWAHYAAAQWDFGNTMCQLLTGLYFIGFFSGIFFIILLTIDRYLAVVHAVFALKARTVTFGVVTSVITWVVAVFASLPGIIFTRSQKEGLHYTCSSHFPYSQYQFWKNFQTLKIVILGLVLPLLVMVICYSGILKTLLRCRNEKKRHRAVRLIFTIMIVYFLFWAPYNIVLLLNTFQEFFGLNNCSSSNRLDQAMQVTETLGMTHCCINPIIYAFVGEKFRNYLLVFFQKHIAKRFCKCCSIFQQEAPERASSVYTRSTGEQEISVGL

Substance	ΔA450nm, alone [3]	ΔA450nm, +100-fold excess unlabeled peptide [4]	ΔA450nm, alone [5]	ΔA450nm, specific binding [6]	ΔA450nm, specific binding [7]	ΔA450nm, +100-fold excess unlabeled peptide [8]	other results
KQK (peptide)							Kd [1]: 0.5 µM and 1 µM
RANTES (from UniProt P13236 24-92) (ligand)							Kd (CCR5 (human)): 0.001 µM
WVQ (peptide)							Kd [2]: 2 µM
gp120:V3(BaL) (peptide)	0.642 A450	0.107 A450	0.167 A450	0.535 A450	< 0 A450	0.168 A450	
gp120:V3(IIIb) (peptide)	0.268 A450	0.131 A450	0.878 A450	0.137 A450	0.689 A450	0.189 A450	fold specific binding to Jurkat cells against THP-1 cells [9]: 5 fold
